The series concerns the molecule itself. As to the kind of experiment: SEC-MALS; POP3 PYD (1-83) alone on column HR 10/30 in 20 mM Tris-HCl pH 8.0, 150 mM NaCl; three-angle light scattering and refractive index detectors, ASTRA software.

B1: PYD domain of PYRIN Domain-Only Protein 3 (POP3), amino acids 1-83 (domain or fragment, human, UniProt W6CW81 1-83, looked up)
chain: MESKYKEILLLTSLDNITDEELDRFKCFLPDEFNIATGKLHTLNSTSSQLDLKRWHGVCSEEDRIFQKLNYMLVAKCLREEQE
notes: PYRIN domain-only protein 3 (POP3), human, PYD domain, residues 1-83 of the 113-residue protein; The vector probably adds linker residues before the His6; also called POP3 PYD (1-83 aa); POP3PYD; not shown: His6, C-terminal, kept
As usually defined, the stoichiometry N is a count of units in the complex or per binding partner. Turning to B1, the “stoichiometry N” value was 2.

The values are drawn from PMC7938106, “In vitro complex formation of human PYRIN domain-only protein 3 prevented by self-oligomerization of ASC PYD domain” (Saudi Journal of Biological Sciences, 2021).
